Experimental data: the DeepSol protein solubility set

Assay: soluble on expression in E. coli; label from the status in PepcDB or PDB records

Row | Sequence | soluble on expression in E. coli
1 | MSLNKPFERRSLLRGAGALTAASLAPWAAGCAADDDDALTFFFAANPDELRPRMRVVNEFQRRYPDIKVRALLSGPGVMQQLATFCAGGKCPDVLMAWELTYAELADRGVLLDLNTLLARDQAFAAELKSDSIGALYETFTFNGGQYAFPEQWSGNFLFYNKQLFDDAGVPPPPGSWERPWSFAEFLDAAQALTKQGRSGRDRQWGFVNAWVSFYAAGLFAMNNGVPWSVPRMNPTHLNFDHDGFLEAVQFYADLTNKHKVAPSAAEQQSMSTADLFSVGKAGIALAGHWRYQTFDRADGLDFDVAPLPIGPRGRAACSDIGVTGLAIAATSRRKDQAWEFVKFATGPVGQALIGESRLFVPVLRSAINSHGFANAHRRVGNLAVLSEGPAYSEGLPVTPAWEKIAALMDRYFGPVLRGSRPATSLTGLSQAVDEVLRNEGHHHHHH | not soluble
2 | MGSDKIHHHHHHMSILVPEQVREALDVHVVSFLGGRLNKHWLVDVCGHKLVLRRWAADREDAGYERDLRQAIRASGWPVARDVTALTEIAGELWSLAEFLPGEPHPEKNSAAELSLRGRLMAEFHQVTASLNPGRRKHWRLPDEILSDDHLEQVFEHCPDVRLRRLLFWHLQRGRQLAAGLPWSEQSLQLIHGDFTPWNLLYREGQLSGLLDCEMSRPEYRISEFALSWRGRYDALIHAYHAVSPLSAPEWNMLTPAWWALLLEGAYRNLVSGTEDQGWTAGMLLRRSPLMGIESCPC | not soluble
3 | MKITYIHHSSFLVELEHVSMLFDYYAGQLPEIRKDRPLVVFASHFHGDHFAPVIFDLAKDREDVNYVLSKDISKKKVPDNLIGRVTFVKAGEKLALYTEGRKAGLEIETFKSTDEGVAFWITCEGSTIYHAGDLNNWWWEGEDKAWNHNMAANYAHEMEKMEGRTVDAAFVPLDPRLEQWFYLGMKEFMEKVDAKAVIPMHFWKDYSIIEKMRQHPSSEGWRERLVEIHREGEELAI | not soluble
4 | MGSDKIHHHHHHMKVELDVSELAVGMYVVEITQPKNKFQLAEQGWITKQQVIDGFKRKGIEKLLVDSSKRRPQPSEPAKVNQATMDKQAAQLTKTPGLFKQRLSQAKQLFNESKAIQRRLFDDAQAGVPLTLEPVRRVTDQSIEAIFDNPDALACVINIRHKDQYLLEHSVAVSVLMTIFACYLKIDKEIVSELAIGAFLHDVGKIMIPPSILDKPGRLTTEEFEVMKTHANHSIRIIENTPNISPLSLEVARLHHEKLNGKGYPFGVSAEAISRFGRMIAICDIFDALTANRCYKAGYPQVKAFSILRALGENNELDAELVDHFIKCMGVYPVGSLVQLESNRLAIVESHNHQDPIRPKVKPFYSLNPNHFEISANIDLAAMRDDIIVKNVRADDFDLDMDEIIEFLSHEG | not soluble
5 | MGSDKIHHHHHHFRSFLMRDREKARKYVLKEIEKFGKRAFTWLFSDVVVEGSENIPKDRNFIVVANHQSLMDIPLILGFVATGAFIAKEELRKIPGVNWYIRYLNGVFLDRKNPRRAVRALREAIEKLKNGVTFIVFPEGTRSPDGKVLSFKKDSLMIAVKTGVPVLPVSIWGTYHLIPKGRWTFTPGKVFLKIHEPVDPKGFSSEEELRKYVEEVVKRGVEELKARWSK | not soluble
6 | MGMKFLNKKGWHTGSLRNIETVWKAEQKQEAEQKKLEELRLQILQERERSEFRALQEQAGLIPRQERLEFLYDSGLAVGKGSASGSGVSFQKEEQPLAKSEAGSSASEKPDQSAPGALFEEKAQSANDSWRKLHSDPLLLIRQREQEALAKIKNNPVKMALIRKSVEEKGKGKDGDTKEHKKKHKRKSGKHQKQSSSRQRSDSEEDSGEENNGRKSHHQKTSGTHDRHYERPRSDLEDESKGRESRDRHYEKRRSELDDGHKRRERHDTHYERRRSEMDDESKRRESRDNHYERRRSDLDDESKRRESHDKHFERQRSDLDDEYKRRESQDKRRRSDIDDEPKRRDARPNEKYRNRSPKGGVERENLKSYGQEDKKRKAEDLDSGKPNEYQNRRRKGGSKLSEEERAARLKQMQMDAEVHEEQRWTRLKKADETDAVEADKNKVSTGKSFLDDANKSVYGVEKGGSSTIEESVRRRSYYSQRGTAAEGNAFRR | not soluble
7 | MSLEQASVTNDFSENKQGCIQHPWQGKKVGYIGDSITDPNCYGDNIKKYWDFLKEWLGITPFVYGISGRQWDDVPRQAEKLKKEHGGEVDAILVFMGTNDYNSSVPIGEWFTEQEEQVLSAHGEMKKMVTRKKRTPVMTQDTYRGRINIGITQLKKLFPDKQIVLLTPLHRSLANFGDKNVQPDESYQNGCGEYIDAYVQAIKEAGNIWGIPVIDFNAVTGMNPMVEEQLIYFYDAGYDRLHPDTKGQERMARTLMYQLLALPVAFEGHHHHHH | soluble
8 | MENKRTLVVALGGNALLKRGEPLEADIQRKNIELAARTIAQLTRQWRVVLVHGNGPQVGLLALQNSAYANVTPYPLDILGAESQGMIGYMLQQALKNHLPEREISVLLTQVEVDANDPAFLNPTKYIGPIYDEAQARALQAEKGWVFKADGNAFRRVVPSPQPKRIVENDAIRALISRDHLVICNGGGGVPVVEKADGYHGIEAVIDKDLSAALLASQIHADALLILTDADAVYLDWGKPTQRPLAQVTPELLREMQFDAGSMGPKVTACAEFVSHCRGIAGIGSLADGQAILAGEKGTLIRCETADVDA | not soluble
9 | MGSDKIHHHHHHMLNQQWLTTFIKLVEVGHFTHTAEQLFMTQPGVSQHIKKLEQQVGVDLLIRIGKSFELTEAGIVLYQQALVWQQQQQQVLSQLAVDDEHVGDCRLACSGSMALLLYPHLIDYQLPYSQLQIYLEAAPNKRIIDSVMTNTIDVGIITQPINMDELVVTPLAAQSLCLVLPQSYLHQSVTFEQLMELGMVSHPDAMHYWSQIVGQYFTKKQALALQVPIRSYVNQLNQILVPVAKGLAFAVLPQFAVDHFGQQQHIRVASFTTEQANNVVVSEPLFIIYKKHRPLARRYGPIIDKIKQLVK | not soluble
10 | MDHTVLIALLLAFCSTASAVDSEGTDFVFAFVRNANPNITNQILSATVLNQNAQDCKFTLTYRPDYRKATSPENITVTVSANSAVEVPVLSWYGWNYANENLQDDVFLTLTGFSTCPVTVLANNYDNVTGQGDTYMVLPLTWGSTSLTFSLPPAVLSTDQQYEQIYVLPTTPGVTKVSVFEIGNAASVYTFNATFGNAPAAYIGARTPDARPRTYHVMSDKNVLVVAGVTCAGADANSCDHVAYMPHPPPSSDCYTYDYYDDDHVSYLPTTSQFFTDIPGTCSVGQNITRTLNDGVSYTITIKPQMESPLWSIKTTNANQLAVAFHNGGSNIHIARYYDGTKFNSRGAFAATSPSMTQFHNLNTPFFTRNANDTIEIYCTVLSCSSITIDGVKIQITDTKVVQKVDDISYYIFVNTIANPGYHQISLKQQGSYAFFVYGKNKLYSYGYEGGANKPTVVLAPPTTPGPTFYPVTTVSTMSPPTTVTVPTTPTPVPTTTNTPPANPTTATPTTVGTMTPSTGTTTVPVPTTTGSPTTQTTAPVTKPTVPSSTTQTAPPVTTPTSQPPVTTTSLLTTLTTPTVPVTTTVVPSSATVPTTPPTTVTVAATTTSKAPVVTTSPTLAPTSPTKLPTSPPSTVGTSPTAPANLTTPTTAPVNPTSSTTAPTAPVNPTSPTTAPTVPPVTTTTPTTTTSTTTTTTTTTTTTQTTPTTPVVTTPSTITPTTRPVTQPASQPATQPATTPTTTIPTTTQFSSAVSVALPVVLTMFFALF | not soluble
11 | MGSDKIHHHHHHMNTLTDVEWNAFALPANLADGHAYHDMHVAFMEIMKNLERIWSEADKITPPRMALDFKNSFSRLIKSPSLMPHTHYKICPSASNSIDLIAAFLHGKNIRTVLVEPTFDNLALLLQRRGVTVDSVSEDNLTHHLVDGNFDSIPAIKTAEAVFIVSPNNPTGYTLSLQEFKTLVAYCKRTEKLLVVDNSFRFFNRQGYDDYQVLLESGVNFIAFEDTGKTWPTQDLKASLIIYSDTVKVFFESLYNEIYLCVSNFVLHLFSHLFDATSAVGLKSVLWDVVDSNRALLRETLQGSVLRISETSKEGLK | not soluble
12 | MSLKELEEIRKEIDEVDKIITELFEKRMNLVMEVAEYKEKNSIPVSDSKREKKVIDKNIGYLKNKEYSEVLKEFYINFMNLSKKLERKRIYNEEKTSVNTSIYGLIGEKLGHSHSSYIHKLIFEKVGIKGIYNLFEVPKEKLKESVDTFKIIKCGGLNVTIPYKVEVMKELYEISEKARKIGAVNTLKFSREGISGFNTDYIGFGKMLSKFRVEIKNNICVVLGSGGAARAVLQYLKDNFAKDIYVVTRNPEKTSEIYGEFKVISYDELSNLKGDVIINCTPKGMYPKEGESPVDKEVVAKFSSAVDLIYNPVETLFLKYARESGVKAVNGLYMLVSQAAASEEIWNDISIDEIIVDEIFEVLEEKIKSEGHHHHHH | soluble
13 | MIVVLKMGADKNEVKKLIEAIGREGVEVNPIDGTELTVLGLVGDTSKIDAKRIEANKVVEKVMHVVEPFKKANRKFHPEPSIINVNGMEIGSKKIAMIAGPCSVETEDQIVSIAKDVKKSGAGFLRGGAFKPRTSPYAFQGLKYDGLDLLKKAKEKTGLPIVTEIMSTQDIDIFEENVDVIQVGARNMQNFDLLKELGKTNKTILLKRGLSATIEEWLMSAEYIMAGGNENVVLCERGIRTFETYTRNTLDLSAILAVKKLSHLPVIVDPSHAAGKSWMVDSLSKAAIAVGADGLIIEVHNDPAHALCDGKQSIKPNEYDELISELKTIASAVGREI | not soluble
14 | MAHHHHHHMSSASIVALSLSLSFSLGLLRSLGSARHIRYGHPHTNTSAYGGRHPRMQVMAAAARTYRHIVARELSTNFRAVASIVEAPFPTVLHPKAILVKNKYLGVNASDINFTAGIYQPDVRPPFACGFEAVGEVVDVGSGVKDLKAGAAVVTQSYGAFAEYQVVARRHAKPIPRVAREYLPLDLSATTASIALEHVLKPQPGERAVVTAAAGGTGQFAVQLLKHVYGCSVVGTCSSPSKEVFLTNTLKCDGVVNYKAEGGDTAAAFLRCYPRGVNIAYESVGGDLLEAVIQSLAPRGRILSLGCVSTYQCGSIEAACPSRKPLPLQLLAKSASLSTFFLPHFAKYGQLHFDRLCALHEQGLVQCCIDPTTFEGLEGVYDAIDWMFEQKNCGKVMVEL | not soluble
15 | MGSDKIHHHHHHMTYDFLIIGGGIAGTSAGAALSRLGTTCLLEAESALAYHASGRSAALFEPNYGHPVTVDLSHASATALRTLGGGVLSPRGLLILAGPGEDAALARDIKTMDLAEISIADAQDMIPILNADHITRAAHHAAAWDIDTDRMVQHYARQIRTNGAVETGATVLGLTKTPQGWTVETRDHSFHARIIVNAAGAWADDIARMAGIAPIGLTPKRRSMARMPAPRGHDVSAWPMIIGAGESWYAKPDAGAWLVSPAEEDPAAPHDAYADDMVLAEGIARYQPFVTEEVTRVTSSWAGLRTFAPDRCLVIGPDRTDPSVLWFAGQGGYGFQTAPAASQLLADLVSGAPSTLDPATVKALSPSRF | not soluble
16 | MPSKQVGWWTMSEHTNDEVQPTALSGNDAVNRAAEQWKESAHRNIPGLGDLPIPDDTANLREGPNLHDGLLALLPLVGVWRGTGHADTAEEGQYAFGQQITFAHDGENYLTYESRIWKLDDEGNSTDLDYRESGFWRISLKDEIEVVLTHSTGVAEIFYGEPMNERAWQIESASTMVTAQGPATLGPGKRLYGLMPNNNLGWVDERMVDGEMRPRMSAELSRVIG | not soluble
17 | MSITYSAISFSGFSPKSVPFAIHSVTRRQFLNPNTFYRFGFSPSLQGSSIEFSLQLNSRVVLSKERRSLPLVVRNDRPQNEDLPKQYTRREKKPFPVPIVDLRRAARERVKNNKDKPKRPLPPPKNGMVVKSLVPLAYKVYNARIRLINNLHRLMKVVRVNACGWCNEIHVGPYGHPFKSCKGPNTSQRKGLHEWTNSVIEDVIVPLEAYHLFDRLGKRIRHDERFSIPRVPAVVELCIQGGVEIPEFPAKRRRKPIIRIGKSEFVDADETELPDPEPQPPPVPLLTELPVSEITPPSSEEETVSLAEETLQAWEEMRAGAKKLMRMYRVRVCGYCPEVHVGPTGHKAQNCGAFKHQQRNGQHGWQSAVLDDLIPPRYVWHVPDVNGPPMQRELRSFYGQAPAVVEICAQAGAVVPEHYRATMRLEVGIPSSVKEAEMVV | soluble
